Experimental data reported in patent US20210046160A1 (Synthorx, Inc., priority 2019, published 2021).

What was measured:
[1] = target: T1, IL-2 receptor βγ complex (IL-2Rβ and IL-2Rγ subunits) (Homo sapiens, UniProt P14784+P31785); assay: PathHunter IL-2 Cytokine Receptor assay, agonist mode, βγ cell line; format: cell-based; settings: ratio of the EC50 values
T1 construct: host or cells: recombinant human U2OS cell line (PathHunter)
T1 sequence (P14784 27-551): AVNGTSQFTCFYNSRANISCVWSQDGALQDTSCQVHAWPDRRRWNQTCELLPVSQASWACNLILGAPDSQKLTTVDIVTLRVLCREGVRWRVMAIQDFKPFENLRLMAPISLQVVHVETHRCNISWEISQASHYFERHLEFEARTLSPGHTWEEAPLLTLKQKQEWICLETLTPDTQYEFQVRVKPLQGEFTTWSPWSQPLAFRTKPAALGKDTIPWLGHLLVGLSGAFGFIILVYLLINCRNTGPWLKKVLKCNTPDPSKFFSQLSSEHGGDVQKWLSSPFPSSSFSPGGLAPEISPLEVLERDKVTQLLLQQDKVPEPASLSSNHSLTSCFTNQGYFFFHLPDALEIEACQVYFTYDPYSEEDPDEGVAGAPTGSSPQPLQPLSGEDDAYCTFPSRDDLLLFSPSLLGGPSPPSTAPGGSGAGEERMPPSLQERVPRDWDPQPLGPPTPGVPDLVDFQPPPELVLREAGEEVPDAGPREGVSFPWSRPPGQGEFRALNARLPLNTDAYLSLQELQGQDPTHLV
T1 sequence (P31785 23-369): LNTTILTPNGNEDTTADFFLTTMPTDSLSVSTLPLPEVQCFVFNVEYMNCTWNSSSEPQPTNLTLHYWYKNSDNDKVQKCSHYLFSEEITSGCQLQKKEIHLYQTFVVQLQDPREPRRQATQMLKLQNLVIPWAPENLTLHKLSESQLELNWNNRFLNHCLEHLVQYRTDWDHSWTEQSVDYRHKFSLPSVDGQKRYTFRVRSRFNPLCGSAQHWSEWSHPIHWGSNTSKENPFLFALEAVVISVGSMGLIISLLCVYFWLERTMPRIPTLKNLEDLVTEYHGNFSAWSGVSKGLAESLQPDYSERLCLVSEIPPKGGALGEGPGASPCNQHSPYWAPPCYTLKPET
Protocol: PathHunter cell lines were expanded from freezer stocks according to standard procedures. Cells were seeded in a total volume of 20 μL into white walled, 384-well microplates and incubated for the appropriate time prior to testing.
For agonist determination, cells were incubated with sample to induce response. Intermediate dilution of sample stocks was performed to generate 5× sample in assay buffer. About 5 μL of 5× sample was added to cells and incubated at 37° C. for 6 to 16 hours depending on the assay. Vehicle concentration was 1%.
Assay signal was generated through a single addition of 12.5 or 15 μL (50% v/v) of PathHunter Detection reagent cocktail for agonist and antagonist assays respectively, followed by a one hour incubation at room temperature. For some assays, activity was detected using a high sensitivity detection reagent (PathHunter Flash Kit) to improve assay performance. In these assays, an equal volume of detection reagent (25 or 30 μL) was added to the wells, followed by a one hour incubation at room temperature. Microplates were read following signal generation with a PerkinElmer Envision™ instrument for chemiluminescent signal detection.
Compound activity was analyzed using CBIS data analysis suite (ChemInnovation, CA). For agonist mode assays, percentage activity was calculated using the following Formula:
% Activity=100%×(mean RLU of test sample−mean RLU of vehicle control)/(mean MAX RLU control ligand−mean RLU of vehicle control).
A second cell line has been further engineered to express the IL-2Rα subunit. […] The assay was run in agonist mode to determine the EC50 of each test article, and comparison of dose-response curve profiles between IL2Rα positive and negative cell types allows determination of the contribution of IL2Rα to the observed activity.

Treg cells = assay: pSTAT5 concentration-response in human LRS-derived PBMC samples (flow cytometry): Treg cells; format: cell-based; settings: Table 4; ratio of pSTAT5 EC50 values
Protocol: These studies were performed at PrimityBio LLC (Fremont, Calif.). […] Staining panel for flow cytometry study of LRS-derived PBMC samples include markers for Effector T cells (Teff: CD3+, CD4+, CD8+, CD127+), NK cells (CD3-, CD16+), and Regulatory T cells (Treg: CD3+, CD4+, CD8-, IL-2Rα+, CD127-1).
The EC50 values (pg/mL) was calculated from dose response curves generated from MFI plots.
These studies were performed at PrimityBio LLC (Fremont, Calif.). […] Staining panel for flow cytometry study of LRS-derived PBMC samples include markers CD4, CD4+ memory central, CD4+ memory effect, CD4+ memory T cells, CD4+ Naive T cells, CD4+ T cells, CD8, CD8+ memory central, CD8+ memory effect, CD8+ memory T cells, CD8+ Naive T cells, CD8+ T cells, NK cells, and T regulatory cells.
Conjugates of Table 12 were synthesized by modification of SEQ NO. 1. These studies were performed at PrimityBio LLC (Fremont, Calif.).
The EC50 values (pg/ml) were calculated from dose response curves generated from the MFI plots.

CTLL-2 = CTLL-2 proliferation; format: cell-based; settings: Table 4
[2] = Plasma and tumor PK study E3826-U1803 in B16-F10 tumor-bearing C57BL/6 mice; format: in vivo
Protocol: Terminal blood samples were collected via cardiac puncture at the points indicated. […] Plasma and blood cells (in both studies) and tumors in study E3826-U1803 were collected for PK and PD analyses.
Bioanalysis of plasma samples was performed using a qualified human IL-2 ELISA assay (Abcam, Cambridge, UK). Concentrations of Aldesleukin, E62_30kD and P65_30kD and the internal standard in samples derived from plasma were determined using an ELISA assay. […] The PK data were imported into Phoenix WinNonlin v6.4 (Certara/Pharsight, Princeton, N.J.) for analysis. The group mean plasma concentration versus time data were analyzed with noncompartmental methods using an IV bolus administration model.
The tail end of the curves cross showing the plasma eliminates faster than the tumor (data not shown).

[3] = PK/PD in cynomolgus monkeys, Study No. 20157276; settings: cynomolgus monkey, 0.3 mg/kg single IV
Protocol: The study was conducted at Charles River Laboratories, Inc. (Reno, Nev.) and PK data analysis was performed at NW Solutions (Seattle, Wash.). […] Both plasma and blood cells were collected for PK and PD analyses. Selected time points were used for PK, PD, cell population and hematology analysis.

[4] = B16-F10 tumor-bearing C57BL/6 female mice, 3 mg/kg single IV dose

P65_30kD: SEQ ID NO: 25: IL-2 (SEQ ID NO: 4) with P65 replaced by AzK click-conjugated to methoxy linear 30 kDa PEG [Compound P65_30kD]
βγ/αβγ ratio [1]: 5 | CD8/Treg ratio (Treg cells): 2.8 | EC50, CTLL-2 proliferation (CTLL-2): 677,198 pg/mL | tumor:plasma AUC ratio ([2]; 1 mg/kg dose): 9.7% | tumor:plasma AUC ratio ([2]; 3 mg/kg dose): 8.4% | AUC0-t, Plasma [2, 4]: 656,000 h*ng/mL | AUC0-t, Tumor [2, 4]: 55200 ng·h/mL | AUCINF, Plasma [2, 4]: 656,000 h*ng/mL | AUCINF, Tumor [2, 4]: 55200 ng·h/mL | Cmax, Plasma [2, 4]: 40000 ng/mL | Cmax, Tumor [2, 4]: 1550 ng/mL | Tmax, Plasma [2, 4]: *2.00 h | Tmax, Tumor [2, 4]: 480 min | t½, Plasma [2, 4]: 756 min | t½, Tumor [2, 4]: 1460 min | AUC0-t, Animal 2705 [3]: 120000 ng·h/mL | AUC0-t, Mean [3]: 121000 ng·h/mL | CL, Animal 2699 [3]: 2.47 mL/h/kg | CL, Animal 2705 [3]: 2.49 mL/h/kg | CL, Mean [3]: 2.48 mL/h/kg | Cmax, Animal 2699 [3]: 11000 ng/mL | Cmax, Animal 2705 [3]: 11400 ng/mL | Cmax, Mean [3]: 11200 ng/mL | Tmax, Animal 2699 [3]: 30 min | Tmax, Animal 2705 [3]: 30 min | Vss, Animal 2699 [3]: 0.029 L/kg | Vss, Animal 2705 [3]: 0.0321 L/kg | Vss, Mean [3]: 0.0305 L/kg | mean plasma concentrations measurable out to (post-dose) [3]: 168 h | Tmax, Mean ([3]; 0.3 mg/kg): 30 min
